In US20260250388A1 (published 2026):
Changes are numbered by the printed parent chain.

T1: KRAS G12V peptide on HLA-A*11:01 (human)
T1 peptide: VVVGAVGVGK

T2: KRAS G12V peptide on HLA-A*11:01 (human)
T2 peptide: VVGAVGVGK

B1: TCR1 (TCR, V domains shown)
Valpha: LAKTTQPISMDSYEGQEVNITCSHNNIATNDYITWYQQFPSQGPRFIIQGYKTKVTNEVASLFIPADRKSSTLSLPRVSLSDTAVYYCLVGALSSSWYGQNFVFGPGTRLSVLP
Vbeta: DTAVSQTPKYLVTQMGNDKSIKCEQNLGHDTMYWYKQDSKKFLKIMFSYNNKELIINETVPNRFSPKSPDKAHLNLHINSLELGDSAVYFCASSQSGAQDGYTFGSGTRLTVV
B2: TCR8 (TCR, V domains shown)
Valpha: SQQGEEDPQALSIQEGENATMNCSYKTSINNLQWYRQNSGRGLVHLILIRSNEREKHSGRLRVTLDTSKKSSSLLITASRAADTASYFCATDAGGGADGLTFGKGTHLIIQP
Vbeta: DSGVTQTPKHLITATGQRVTLRCSPRSGDLSVYWYQQSLDQGLQFLIQYYNGEERAKGNILERFSAQQFPDLHSELNLSSLELGDSALYFCASSESRDSGNTIYFGEGSWLTVV
B3: TCR9 (TCR, V domains shown)
Valpha: B2 Valpha with A93S
Vbeta: B2 Vbeta with S94T, E95P, S96G
B4: TCR6 (TCR, V domains shown)
Valpha: AQSVTQPDIHITVSEGASLELRCNYSYGATPYLFWYVQSPGQGLQLLLKYFSGDTLVQGIKGFEAEFKRSQSSFNLRKPSVHWSDAAEYFCAVGASREYGNKLVFGAGTILRVKS
Vbeta: NAGVMQNPRHLVRRRGQEARLRCSPMKGHSHVYWYRQLPEEGLKFMVYLQKENIIDESGMPKERFSAEFPKEGPSILRIQQVVRGDSAAYFCASSPGGLLHFGNGTRLTVT
B5: TCR2 (TCR, V domains shown)
Valpha: DQQVKQNSPSLSVQEGRISILNCDYTNSMFDYFLWYKKYPAEGPTFLISISSIKDKNEDGRFTVFLNKSAKHLSLHIVPSQPGDSAVYFCAAKDNAGNMLTFGGGTRLMVKP
Vbeta: KAGVTQTPRYLIKTRGQQVTLSCSPISGHRSVSWYQQTPGQGLQFLFEYFSETQRNKGNFPGRFSGRQFSNSRSEMNVSTLELGDSALYLCASSLGTAEAFFGQGTRLTVV
B6: TCR7 (TCR, V domains shown)
Valpha: B5 Valpha with A92G, D94T, A96T, M99Q, L100F, T101Y, G104T, R107S, M109T, K111I
Vbeta: B5 Vbeta with L95S, T97H, A98P
B7: TCR5 (TCR, V domains shown)
Valpha: GEDVEQSLFLSVREGDSSVINCTYTDSSSTYLYWYKQEPGAGLQLLTYIFSNMDMKQDQRLTVLLNKKDKHLSLRIADTQTGDSAIYFCAESPGGGADGLTFGKGTHLIIQP
Vbeta: GAVVSQHPSWVICKSGTSVKIECRSLDFQATTMFWYRQFPKQSLMLMATSNEGSKATYEQGVEKDKFLINHASLTLSTLTVTSAHPEDSSFYICSAPRGWAAGVYGYTFGSGTRLTVV
B8: TCR4 (TCR, V domains shown)
Valpha: QKEVEQNSGPLSVPEGAIASLNCTYSDRGSQSFFWYRQYSGKSPELIMFIYSNGDKEDGRFTAQLNKASQYVSLLIRDSQPSDSATYLCAVERGSTLGRLYFGRGTQLTVWP
Vbeta: GAGVSQSPRYKVTKRGQDVTLRCDPISSHATLYWYQQALGQGPEFLTYFNYEAQPDKSGLPSDRFSAERPEGSISTLTIQRTEQRDSAMYRCASSLSSPTGGPINEQFFGPGTRLTVL
B9: TCR3 (TCR, V domains shown)
Valpha: DQQVKQNSPSLSVQEGRISILNCDYTNSMFDYFLWYKKYPAEGPTFLISISSIKDKNEDGRFTVFLNKSAKHLSLHIVPSQPGDSAVYFCAANSGYALNFGKGTSLLVTP
Vbeta: KAGVTQTPRYLIKTRGQQVTLSCSPISGHRSVSWYQQTPGQGLQFLFEYFSETQRNKGNFPGRFSGRQFSNSRSEMNVSTLELGDSALYLCASSLGGVGNEQFFGPGTRLTVL
B10: TCR1 (TCR)
TCR alpha: SLAKTTQPISMDSYEGQEVNITCSHNNIATNDYITWYQQFPSQGPRFIIQGYKTKVTNEVASLFIPADRKSSTLSLPRVSLSDTAVYYCLVGALSSSWYGQNFVFGPGTRLSVLPYIQNPDPAVYQLRDSKSSDKSVCLFTDFDSQTNVSQSKDSDVYITDKTVLDMRSMDFKSNSAVAWSNKSDFACANAFNNSIIPEDTFFPSPESSCDVKLVEKSFETDTNLNFQNLSVIGFRILLLKVAGFNLLMTLRLWSS
TCR beta: DTAVSQTPKYLVTQMGNDKSIKCEQNLGHDTMYWYKQDSKKFLKIMFSYNNKELIINETVPNRFSPKSPDKAHLNLHINSLELGDSAVYFCASSQSGAQDGYTFGSGTRLTVVEDLNKVFPPEVAVFEPSEAEISHTQKATLVCLATGFFPDHVELSWWVNGKEVHSGVSTDPQPLKEQPALNDSRYCLSSRLRVSATFWQNPRNHFRCQVQFYGLSENDEWTQDRAKPVTQIVSAEAWGRADCGFTSVSYQQGVLSATILYEILLGKATLYAVLVSALVLMAMVKRKDF

Target: T1, KRAS G12V peptide on HLA-A*11:01
Test: CD69 by flow cytometry on TCR1-transduced Jurkat cells; K562-A*11:01 loaded with peptide at 10^-11 to 10^-6 M; FIG. 4C; full-length, on cells
Experimental: (§1) EC₅₀ values of different TCRs were assessed by spot numbers of IFN-γ release and CD69 expression after co-culture of specific TCR-transduced T cells with target cells loaded with graded concentrations of KRAS G12V-9 peptide ([…]) (SEQ ID NO: 91).

**Q.** Which EC50 of peptide does the source give for B1 here?
**A.** The EC50 of peptide was 31.3 nM.

Target: T2, KRAS G12V peptide on HLA-A*11:01
Test: as above
Experimental: as §1

**Q.** B1 was tested. Which EC50 of peptide did it give?
**A.** The EC50 of peptide was 2.24 nM.

Target: T1, KRAS G12V peptide on HLA-A*11:01
Test: killing
Text: A lentiviral vector containing the TCR gene of the present invention was constructed and used to transduce T cells. The T cells transduced with different TCRs were co-cultured with: (1) HLA-A*11:01-expressing K562 cells loaded with different peptides (G12V-9 peptide: […] (SEQ ID NO: 91), G12V-10 peptide: […] (SEQ ID NO: 92), or WT peptide: […] (SEQ ID NO: 93)+[…] (SEQ ID NO: 94)); and (2) BxPC3 cells expressing HLA-A*11:01, co-expressing HLA-A*11:01 and KRAS G12V, or co-expressing HLA-A*11:01 and KRAS G12D (effector cell:target cell=5:1). After co-incubation for 16 h, the killing ability of T cells against target cells was evaluated by detecting LDH release. Statistical data are shown in FIGS. 2A and 2B (GraphPad Prism 8.0.1 software).

**Q.** Does B2 bind?
**A.** Result: recognises

**Q.** Does B3 bind?
**A.** Result: recognises

**Q.** Does B4 bind?
**A.** Result: recognises

**Q.** Does B5 bind?
**A.** Result: recognises

**Q.** Does B6 bind?
**A.** Result: recognises

**Q.** Does B7 bind?
**A.** Result: recognises

**Q.** Does B8 bind?
**A.** Result: recognises

**Q.** Does B9 bind?
**A.** Result: recognises

target: HLA-A*11:01 / KRAS G12V 9-mer peptide … complex (human); test: cell-based or functional assay

**Q.** B10 was tested. Which EC50 of CD69 expression of TCR-transduced Jurkat cells after co-culture with K562-A*11:01 loaded with graded peptide concentrations (FIG. 4C) did it give?
**A.** The EC50 of CD69 expression of TCR-transduced Jurkat cells after co-culture with K562-A*11:01 loaded with graded peptide concentrations (FIG. 4C) was 2.24 nM.

target: HLA-A*11:01 / KRAS G12V 10-mer peptide … complex (human); test: cell-based or functional assay

**Q.** With B10 as the binder, how does the EC50 of CD69 expression of TCR-transduced Jurkat cells after co-culture with K562-A*11:01 loaded with graded peptide concentrations (FIG. 4C) read?
**A.** The EC50 of CD69 expression of TCR-transduced Jurkat cells after co-culture with K562-A*11:01 loaded with graded peptide concentrations (FIG. 4C) was 31.3 nM.

**Q.** And the fold difference of EC50 (CD69 expression) between the 10-mer and the 9-mer peptide?
**A.** The fold difference of EC50 (CD69 expression) between the 10-mer and the 9-mer peptide was 10 fold.

Target: T2, KRAS G12V peptide on HLA-A*11:01
Test: multimer staining

**Q.** Does B2 bind?
**A.** Result: recognises

**Q.** Does B3 bind?
**A.** Result: recognises

**Q.** Does B4 bind?
**A.** Result: recognises

**Q.** Does B5 bind?
**A.** Result: recognises

**Q.** Does B6 bind?
**A.** Result: recognises

**Q.** Does B7 bind?
**A.** Result: recognises

**Q.** Does B8 bind?
**A.** Result: recognises

**Q.** Does B9 bind?
**A.** Result: recognises
